Laboratory results taken from patent US20210032365A1 (Chugai, published 2021).
Where two headings read alike, the source gives them in different places.

Columns and labels:
[1] = biological target: T1, Serum-derived human C1s (human, UniProt P09871 16-688); assay: SPR Biacore T200, 37 C, antibody captured on protein A/G, pH 7.4, 1.2 mM CaCl2
T1 construct: The analyte was C1s purified from serum; also called hC1s
T1 sequence: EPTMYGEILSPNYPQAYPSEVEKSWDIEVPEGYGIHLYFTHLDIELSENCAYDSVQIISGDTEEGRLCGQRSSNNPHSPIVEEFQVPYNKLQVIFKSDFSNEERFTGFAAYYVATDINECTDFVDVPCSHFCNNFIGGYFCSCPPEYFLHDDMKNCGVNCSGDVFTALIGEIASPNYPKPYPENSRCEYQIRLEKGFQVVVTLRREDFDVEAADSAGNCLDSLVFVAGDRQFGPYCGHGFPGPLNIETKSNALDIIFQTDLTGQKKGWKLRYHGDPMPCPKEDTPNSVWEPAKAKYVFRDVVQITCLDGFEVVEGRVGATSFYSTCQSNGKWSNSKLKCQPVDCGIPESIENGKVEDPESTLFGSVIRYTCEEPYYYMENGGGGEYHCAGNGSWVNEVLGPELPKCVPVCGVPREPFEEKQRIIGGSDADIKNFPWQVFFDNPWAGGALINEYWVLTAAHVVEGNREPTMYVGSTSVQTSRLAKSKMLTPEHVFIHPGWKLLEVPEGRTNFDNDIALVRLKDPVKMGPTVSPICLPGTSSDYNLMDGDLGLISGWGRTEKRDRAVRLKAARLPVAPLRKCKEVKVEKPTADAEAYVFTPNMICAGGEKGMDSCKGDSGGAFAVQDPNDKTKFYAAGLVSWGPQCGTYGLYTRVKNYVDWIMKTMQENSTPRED

[2] = biological target: T1, Serum-derived human C1s; assay: SPR Biacore T200, 37 C, ratio of dissociation rates pH 5.8 / pH 7.4, 1.2 mM CaCl2
[3] = biological target: T1, Serum-derived human C1s; assay: SPR Biacore T200, 37 C, antibody captured on protein A/G, pH 5.8, 1.2 mM CaCl2; marked *: not accurately determined, low binding response
Experimental: The binding affinity of all histidine-substituted variants at pH 7.4 and pH 5.8 were determined at 37 degrees C. using Biacore T200 instrument (GE Healthcare). Recombinant Protein A/G (Pierce) was immobilized onto all flow cells of a CM4 sensor chip using amine coupling kit (GE Healthcare). Antibodies and analytes were prepared in 7(+) buffer (20 mM ACES, 150 mM NaCl, 1.2 mM CaCl2, 0.05% Tween 20, 0.005% NaN3, pH 7.4) or 5(+) buffer (20 mM ACES, 150 mM NaCl, 1.2 mM CaCl2), 0.05% Tween 20, 0.005% NaN3, pH 5.8). Each antibody was captured onto the sensor surface by protein A/G. Antibody capture levels were aimed at 200 resonance unit (RU). […] Sensor surface was regenerated each cycle with 10 mM Glycine-HCl pH 1.5. […] An additional dissociation phase at pH 5.8 was integrated immediately after the dissociation phase at pH 7.4. This dissociation rate in 5(+) buffer was determined by processing and fitting data using Scrubber 2.0 (BioLogic Software) curve fitting software.

[4] = biological target: T2, human C1s (human, UniProt P09871 16-688); assay: SPR; KD at pH 5.8 (3 uM Ca) over KD at pH 7.4 (1.2 mM Ca)
T2 construct: Analyte in the Biacore assays; also called hC1s; serum-derived human C1s (CompTech)
T2 sequence: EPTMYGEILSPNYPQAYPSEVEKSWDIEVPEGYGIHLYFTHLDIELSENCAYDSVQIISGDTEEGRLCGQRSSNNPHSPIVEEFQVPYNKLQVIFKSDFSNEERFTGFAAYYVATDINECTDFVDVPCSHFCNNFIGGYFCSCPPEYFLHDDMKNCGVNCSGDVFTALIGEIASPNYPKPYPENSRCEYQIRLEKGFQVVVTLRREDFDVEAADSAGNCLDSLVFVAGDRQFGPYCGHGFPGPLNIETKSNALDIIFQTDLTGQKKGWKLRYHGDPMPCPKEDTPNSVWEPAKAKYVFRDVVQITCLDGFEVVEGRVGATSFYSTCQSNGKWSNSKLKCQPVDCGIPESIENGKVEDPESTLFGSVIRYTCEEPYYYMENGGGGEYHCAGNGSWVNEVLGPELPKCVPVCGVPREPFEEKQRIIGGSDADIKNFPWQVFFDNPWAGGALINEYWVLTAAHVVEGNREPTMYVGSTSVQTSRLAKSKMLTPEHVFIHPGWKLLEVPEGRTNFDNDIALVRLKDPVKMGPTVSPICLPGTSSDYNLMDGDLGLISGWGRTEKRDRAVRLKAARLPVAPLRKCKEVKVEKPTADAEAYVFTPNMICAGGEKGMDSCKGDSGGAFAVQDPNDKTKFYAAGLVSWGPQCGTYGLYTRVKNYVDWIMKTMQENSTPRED
In short: (§1)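 Antibody captured on protein A/G (~200 RU) on Biacore T200 at 37C; serum-derived or recombinant human C1s injected at 50 nM, then dissociation. KD measured at pH 7.4 with 1.2 mM Ca and at pH 5.8 with 1.2 mM or 3 uM Ca; KD ratios pH 5.8/pH 7.4 calculated.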

[5] = biological target: T2, human C1s; assay: as above; remark: listed apart in the source
Experimental: (§2) All variants were transiently expressed and purified by the method described above. The binding affinity of each histidine-substituted variant at pH 7.4 and pH 5.8 was determined at 37 degrees C. using Biacore T200 instrument (GE Healthcare). Recombinant Protein A/G (Pierce) was immobilized onto all flow cells of a CM4 sensor chip using an amine coupling kit (GE Healthcare). Antibodies and analytes were prepared in 7(+) buffer (20 mM ACES, 150 mM NaCl, 1.2 mM CaCl2, 0.05% Tween 20, 0.005% NaN3, pH 7.4), 5(+) buffer (20 mM ACES, 150 mM NaCl, 1.2 mM CaCl2, 0.05% Tween 20, 0.005% NaN3, pH 5.8), or 5(−) buffer (20 mM ACES, 150 mM NaCl, 3 micro M CaCl2, 0.05% Tween 20, 0.005% NaN3, pH 5.8). Each antibody was captured onto the sensor surface by protein A/G. Antibody capture levels were aimed at 200 resonance unit (RU). Serum-derived human C1s (CompTech) or recombinant C1s prepared in EXAMPLE 1 was injected at 50 nM, followed by dissociation. The sensor surface was regenerated in each cycle with 10 mM Glycine-HCl, pH 1.5. […] The ratio of KD 5.8+ to KD 7.4+(“KD 5+/7+”) and that of KD 5.8− to KD 7.4+(“KD 5−/7+”) were calculated. When the KD 5+/7+ or KD 5−/7+ of a variant is larger than that of the parent antibody IPN009VH2-SG4GK/IPN009VK3-SK1, that variant is considered to be “pH”- or “pH and Ca”-dependent, respectively. When binding response in 5(+) buffer and/or in 5(−) buffer of a variant is much lower than that of IPN09VH2/IPN009VK3, that variant is also considered as “pH”- and/or “pH and Ca”-dependent. Therefore, such mutations are effective to generate “pH”- and/or “pH and Ca”-dependent antibody. To further enhance “pH” and/or “pH and Ca” dependency, a combination of histidine mutations was conducted. Antibodies with combinations of histidine mutations were evaluated using Biacore by the method described above.

[6] = biological target: T2, human C1s; assay: SPR; KD at pH 5.8 (1.2 mM Ca) over KD at pH 7.4 (1.2 mM Ca)
In short: as §1

[7] = biological target: T2, human C1s; assay: as above; remark: listed apart in the source
Experimental: as §2

[8] = biological target: T2, human C1s; assay: SPR (Biacore T200, 37C), Ab captured on protein A/G; pH 5.8, 3 uM Ca
In short: as §1

[9] = biological target: T2, human C1s; assay: as above; remark: listed apart in the source
Experimental: as §2

[10] = biological target: T2, human C1s; assay: SPR (Biacore T200, 37C), Ab captured on protein A/G; pH 5.8, 1.2 mM Ca
In short: as §1

[11] = biological target: T2, human C1s; assay: as above; remark: listed apart in the source
Experimental: as §2

[12] = biological target: T2, human C1s; assay: SPR (Biacore T200, 37C), Ab captured on protein A/G; pH 7.4, 1.2 mM Ca
Experimental: as §2

[13] = biological target: T1, Serum-derived human C1s; assay: SPR Biacore T200, 37 C, ratio of dissociation rates pH 5.8 / pH 7.4, 1.2 mM CaCl2; remark: listed apart in the source
Experimental: (§3) The binding affinity of all histidine-substituted variants at pH 7.4 and pH 5.8 were determined at 37 degrees C. using Biacore T200 instrument (GE Healthcare). Recombinant Protein A/G (Pierce) was immobilized onto all flow cells of a CM4 sensor chip using amine coupling kit (GE Healthcare). Antibodies and analytes were prepared in 7(+) buffer (20 mM ACES, 150 mM NaCl, 1.2 mM CaCl2), 0.05% Tween 20, 0.005% NaN3, pH 7.4) or 5(+) buffer (20 mM ACES, 150 mM NaCl, 1.2 mM CaCl2, 0.05% Tween 20, 0.005% NaN3, pH 5.8). Each antibody was captured onto the sensor surface by protein A/G. Antibody capture levels were aimed at 200 resonance unit (RU). Serum-derived human C1s was injected at 50 nM, followed by dissociation. Sensor surface was regenerated each cycle with 10 mM Glycine-HCl pH 1.5. […] An additional dissociation phase at pH 5.8 was integrated immediately after the dissociation phase at pH 7.4. This dissociation rate in 5(+) buffer was determined by processing and fitting data using Scrubber 2.0 (BioLogic Software) curve fitting software (Table 9).

[14] = biological target: T1, Serum-derived human C1s; assay: SPR Biacore T200, 37 C, antibody captured on protein A/G, C1s at 50 nM, pH 7.4, 1.2 mM CaCl2
Experimental: as §3

[15] = biological target: T1, Serum-derived human C1s; assay: SPR Biacore T200, 37 C, added dissociation phase at pH 5.8 (1.2 mM CaCl2) straight after that at pH 7.4
Experimental: as §3

B1: IPN92H0286/IPN93L0205-SG136 (antibody, human IgG1, kappa, name in Kabat numbering)
heavy: EVMLVESGGGLVKPGGSLRLSCAASGFTFSNKAMSWVRQAPGKGLEWVATISSGGSHTYYLDSVKHRFTISRDNSKDTLYLQMNSLRAEDTALYYCARLFTGHAMDYWGQGTLVTVSSASTKGPSVFPLAPSSKSTSGGTAALGCLVKDYFPEPVTVSWNSGALTSGVHTFPAVLQSSGLYSLSSVVTVPSSSLGTQTYICNVNHKPSNTKVDKKVEPKSCDKTHTCPPCPAPELRRGPSVFLFPPKPKDTLMISRTPEVTCVVVDVSHEDPEVKFNWYVDGVEVHNAKTKPREEQYNSTYRVVSVLTVLHQDWLNGKEYKCKVSNKGLPSSIEKTISKAKGQPREPQVYTLPPSREEMTKNQVSLTCLVKGFYPSDIAVEWESNGQPENNYKTTPPVLDSDGSFFLYSKLTVDKSRWQQGNVFSCSVMHEALHNHYTQKSLSLSP
light: QIVLTQSPATLSLSPGERATLSCTASSSVSSSRLHWYQQKPGKAPKLWIYSTSNLASGVPSRFSGSGSGTDYTLTISSLQPEDFATYYCHQYHRHPPITFGQGTKLEIKRTVAAPSVFIFPPSDEQLKSGTASVVCLLNNFYPREAKVQWKVDNALQSGNSQESVTEQDSKDCTYSLSSTLTLSKADYEKHKVYACEVTHQGLSSPVTKSFNRGEC
notes: Substitutions are numbered by Kabat
With B1 the Kd [1] was 1.43 nM, the kon [1] was 574000 M⁻¹ s⁻¹ and the “koff (5.8+ of 775+)/koff (7.4+)” value [2] was 16.3. The Kd [3] was 8530 nM, the koff [3] was 0.0237 s⁻¹ and the kon [3] was 2780 M⁻¹ s⁻¹.

B2: C1_IPN009VH2-SG4GK/IPN009VK3-SK1 (antibody, human IgG4 S228P, kappa)
heavy: not shown
light: QIVLTQSPATLSLSPGERATLSCTASSSVSSSYLHWYQQKPGKAPKLWIYSTSNLASGVPSRFSGSGSGTDYTLTISSLQPEDFATYYCHQYYRLPPITFGQGTKLEIKRTVAAPSVFIFPPSDEQLKSGTASVVCLLNNFYPREAKVQWKVDNALQSGNSQESVTEQDSKDSTYSLSSTLTLSKADYEKHKVYACEVTHQGLSSPVTKSFNRGEC
notes: Parent antibody; also called IPN009VH2/IPN009VK3; IPN09VH2/IPN09VK3
B2 was tested, and the “KD 5(-)/7(+)” value [4] was 4.09, the “KD 5(-)/7(+)” value [5] was 4.09 and the “KD 5(+)/7(+)” value [6] was 0.2. The “KD 5(+)/7(+)” value [7] was 0.2, the koff [8] was 0.00204 s⁻¹ and the kon [8] was 606000 M⁻¹ s⁻¹. The koff [9] was 0.00204 s⁻¹, the kon [9] was 605000 M⁻¹ s⁻¹ and the koff [10] was 0.000108 s⁻¹. It also gave a kon [10] of 662000 M⁻¹ s⁻¹, a koff [11] of 0.000108 s⁻¹ and a kon [11] of 662000 M⁻¹ s⁻¹. It also gave a koff [12] of 0.000298 s⁻¹ and a kon [12] of 362000 M⁻¹ s⁻¹.

B3: C1_IPN009VH2-SG4GK/IPN009VK3-SK1 (antibody, human IgG4 S228P, kappa)
heavy: not shown
light: QIVLTQSPATLSLSPGERATLSCTASSSVSSSYLHWYQQKPGKAPKLWIYSTSNLASGVPSRFSGSGSGTDYTLTISSLQPEDFATYYCHQYYRLPPITFGQGTKLEIKRTVAAPSVFIFPPSDEQLKSGTASVVCLLNNFYPREAKVQWKVDNALQSGNSQESVTEQDSKDSTYSLSSTLTLSKADYEKHKVYACEVTHQGLSSPVTKSFNRGEC
notes: also called IPN009VH2/IPN009VK3; IPN09VH2/IPN09VK3
For B3, the “koff (5.8+ of 775+)/koff (7.4+)” value [13] was 0.4, the koff [14] was 0.00037 s⁻¹ and the kon [14] was 298000 M⁻¹ s⁻¹. The koff [15] was 0.000148 s⁻¹.

B4: C1_IPN009VH2-SG4GK/IPN93L0026-SK1 (antibody, V domains shown)
VH: EVMLVESGGGLVKPGGSLRLSCAASGFTFSNYAMSWVRQAPGKGLEWVATISSGGSHTYYLDSVKGRFTISRDNSKDTLYLQMNSLRAEDTALYYCARLFTGYAMDYWGQGTLVTVSS
VL: QIVLTQSPATLSLSPGERATLSCTASSSVSSSYLHWYQQKPGKAPKLWIYSTSNLASGVPSRFSGSGSGTDYTLTISSLQPEDFATYYCHQYYRLPPHTFGQGTKLEIKR
notes: It is read here as I96H (Kabat) in the VL IPN009VK3
B4 was tested, and the “koff (5.8+ of 775+)/koff (7.4+)” value [13] was 0.77, the Kd [14] was 4.28 nM and the koff [14] was 0.0015 s⁻¹. For the same binder, the kon [14] was 350000 M⁻¹ s⁻¹ and the koff [15] was 0.00115 s⁻¹.
